The values that follow come from article PMC6472409, “Dishevelled-3 conformation dynamics analyzed by FRET-based biosensors reveals a key role of casein kinase 1” (Nature Communications, 2019).

Positions count from the first letter of the chain named. Where a SMILES comes first, the peptide text is derived from it. [ ]: non-standard residue; d: D form. The star is where a group is joined. FITC = O=C1OC2(c3ccc(O)cc3Oc3cc(O)ccc32)c2ccc(NC(=S)*)cc21; pS = N[C@@H](COP(=O)(O)O)C(=O)O; Ahx = NCCCCCC(=O)O

Assay [1] concerns the target recombinant His-tagged human CK1ε (Homo sapiens, UniProt P49674). In words: Fluorescence anisotropy (FA) binding of FITC-labeled peptides. To be noted: FITC-Ahx peptide 50 nM, 30 min, 37 °C; n=3; read-out: affinity for recombinant CK1ε (fluorescence anisotropy). From the text: The peptides used in the fluorescent polarization (FA) binding assays were synthesized at Pepscan B.V. (Lelystad, Netherlands). The sequences of these peptides (indicated in Supplementary Fig. 4a) were amidated at their C-termini, and their N-termini were acylated with 6-aminocaproic acid (Ahx) modified with fluorescein isothiocyanate (FITC). The peptides used in the NMR/SPR studies were purchased from KareBay Biochem, Inc. (New Jersey, USA). The peptides for the NMR/SPR studies contained no terminal modifications.
Data were recorded at 37 °C using Tecan Infinite F500 (Tecan Systems, Germany). FITC-labeled peptides were dissolved in DMSO and added to 384-well plates (Corning) to a total volume of 20 μl (peptide final concentration was 50 nM). Incubation with recombinant His-tagged human CK1ε (MyBioSource, #MBS964562) was performed for 30 min at 37 °C. Then, fluorescence intensities were collected simultaneously by detection at 535/590 and 485/535 nm excitation/emission wavelengths, respectively, followed by adjustment to the blank controls.

Assay [2] addresses FITC-labeled peptide corresponding to the DVL3 FRMA region, non-phosphorylated (fluorescence anisotropy) (human). In words: fluorescence polarisation; fluorescence anisotropy, 50 nM FITC-labeled peptide with recombinant His-tagged human CK1ε, 30 min at 37 °C, 384-well plates. (Fluorescence polarisation rises when a labelled molecule tumbles more slowly, as on binding a larger partner.)

In assay [3] the target is FITC-labeled peptide corresponding to the DVL3 RGPR region, non-phosphorylated (fluorescence anisotropy) (human). Described as above.
For assay [4], the target named is FITC-labeled peptide corresponding to the DVL3 RGCF region, non-phosphorylated (fluorescence anisotropy) (human). Described as above.
Assay [5] addresses T1, PDZ domain of human DVL2 wild type (aa 265–361) (human, UniProt O14641 265-361).
T1 chain: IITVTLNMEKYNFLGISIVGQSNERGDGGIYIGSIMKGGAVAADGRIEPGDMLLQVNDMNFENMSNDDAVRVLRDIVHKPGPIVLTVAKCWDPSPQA
Description: NMR.

Assay [6] addresses T2, PDZ domain of human DVL2 (aa 265–361), phosphorylation-mimicking variant S286E + S329E (human, UniProt O14641 265-361, S286E | S329E).
T2 sequence: T1 chain with S22E, S65E
Description: NMR.

Assay [7] addresses T3, PDZ domain of human DVL2 (aa 265–361), phosphorylation-mimicking variant S286E + S329E (human, UniProt O14641 265-361, S286E | S329E).
T3 construct: Dishevelled-2, human, PDZ domain aa 265-361 with S286E and S329E; 15N-labeled for NMR; also called S286E/S329E PDZ; PDZ phosphomimicking variant; source: E. coli BL21 (DE3), purified (Ni-NTA, TEV cleavage, ion exchange, size exclusion); not shown: His6, N-terminal, cleaved; lipoyl domain, N-terminal, cleaved
T3 sequence (looked up): T1 chain with S22E, S65E
In words: SPR; Biacore T200, PDZ immobilized on CM5 chip by amino coupling, peptide injected at increasing concentrations to steady state; one-site equilibrium fit, apparent KD. The conditions noted are these: both partners purified.

The target of assay [8] is T4, PDZ domain of human DVL2 wild type (aa 265–361) (human, UniProt O14641 265-361).
T4 construct: Dishevelled-2, human, PDZ domain aa 265-361; 15N-labeled (13C/15N for assignment) for NMR; S286 and S329 correspond to S268 and S311 of human DVL3; also called DVL2 PDZ wild type; PDZ wt; source: E. coli BL21 (DE3), purified (Ni-NTA, TEV cleavage, ion exchange, size exclusion); not shown: His6, N-terminal, cleaved; lipoyl domain, N-terminal, cleaved
T4 sequence (looked up): T1 chain
The assay is described as above. The conditions noted are these: both partners purified.

Assay [9] concerns the target T3, PDZ domain of human DVL2 (aa 265–361), …. Description: NMR titration; 1H,15N HSQC series, 100 μM 15N-labeled PDZ with increasing amounts of peptide; 20 mM HEPES pH 6.8, 50 mM KCl; apparent KD from three fast-exchange cross-peaks. The conditions noted are these: both partners purified.

recombinant His-tagged human CK1ε, sequence (P49674 whole entry): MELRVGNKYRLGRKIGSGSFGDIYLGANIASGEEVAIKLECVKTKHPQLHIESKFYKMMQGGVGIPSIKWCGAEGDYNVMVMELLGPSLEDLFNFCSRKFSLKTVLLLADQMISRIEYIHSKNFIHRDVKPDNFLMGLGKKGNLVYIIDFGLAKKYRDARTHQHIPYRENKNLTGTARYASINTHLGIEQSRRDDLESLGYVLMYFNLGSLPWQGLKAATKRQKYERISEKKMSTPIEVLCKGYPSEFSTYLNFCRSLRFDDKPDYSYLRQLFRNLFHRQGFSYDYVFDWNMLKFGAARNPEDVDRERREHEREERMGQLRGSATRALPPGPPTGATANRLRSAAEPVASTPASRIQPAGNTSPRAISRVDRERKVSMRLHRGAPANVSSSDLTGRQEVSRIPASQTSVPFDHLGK

Take `CSCC[C@H](NC(=O)[C@H](C)NC(=O)[C@H](CCSC)NC(=O)[C@H](CCCNC(=N)N)NC(=O)[C@H](Cc1ccccc1)NC(=O)[C@H](CO)NC(=O)[C@H](CCC(N)=O)NC(=O)[C@H](CCCNC(=N)N)NC(=O)CCCCCNC(=S)Nc1ccc2c(c1)C(=O)OC21c2ccc(O)cc2Oc2cc(O)ccc21)C(=O)NCC(=O)N[C@@H](CC(N)=O)C(N)=O` [FRMA] ({FITC-Ahx}-RQSFRMAMGN-NH2): the Kd in assay [1] is around 1000 nM.
On the same count and under the same terms, the value for `CC(C)C[C@H](NC(=O)[C@@H](NC(=O)[C@H](Cc1ccccc1)NC(=O)[C@H](CS)NC(=O)CNC(=O)[C@H](CCCNC(=N)N)NC(=O)[C@@H]1CCCN1C(=O)[C@H](CO)NC(=O)[C@@H]1CCCN1C(=O)CCCCCNC(=S)Nc1ccc2c(c1)C(=O)OC21c2ccc(O)cc2Oc2cc(O)ccc21)[C@@H](C)O)C(=O)N1CCC[C@H]1C(=O)N[C@@H](CCCNC(=N)N)C(=O)N[C@@H](CO)C(=O)N[C@@H](CCC(=O)O)C(N)=O` [RGCF] ({FITC-Ahx}-PSPRGCFTLPRSE-NH2) was around 1000 nM.
Still for that read-out and setting: as for `CC(C)C[C@H](NC(=O)[C@H](CO)NC(=O)[C@H](CO)NC(=O)CCCCCNC(=S)Nc1ccc2c(c1)C(=O)OC21c2ccc(O)cc2Oc2cc(O)ccc21)C(=O)N[C@@H](CCCNC(=N)N)C(=O)NCC(=O)N1CCC[C@H]1C(=O)N[C@@H](CCCNC(=N)N)C(=O)N[C@@H](CCC(=O)O)C(=O)N[C@@H](CCCNC(=N)N)C(=O)N[C@@H](C)C(=O)N1CCC[C@H]1C(=O)N[C@@H](CO)C(=O)N[C@@H](CCC(=O)O)C(N)=O` [RGPR] ({FITC-Ahx}-SSLRGPRERAPSE-NH2), the figure is around 1000 nM.
As for “recombinant His-tagged human CK1ε (MyBioSource, #MBS964562) (from UniProt P49674 1-416) (enzyme)”, the Kd in assay [2], in [3] and in [4] was 1000 nM throughout.

B1: phosphorylated (pS700) C-terminal peptide derived from DVL3 (aa 698–716) (peptide, UniProt Q92997 698-716, looked up)
peptide: H-RQ[pS]FRMAMGNPSEFFVDVM-OH
notes: Dishevelled-3, human, C-terminal aa 698-716; the last seven residues are printed as EFFVDIM; also called DVL C-terminal peptide; C-terminal DVL peptide (pS700); source: synthetic peptide, bought: KareBay Biochem
Take B1: the results for the Kd in [5] and in assay [6] were 296000 nM and 625000 nM, respectively. Also, in assay [7], the “fold lower affinity than PDZ wt” value turned out to be 2 fold. Moreover, the binding result in assay [8] is “binds”. The “fold weaker affinity than PDZ wt” value in assay [9] amounted to 2 fold.
